Values belong to the binder of their own block, whether it stands above or below them.
What was measured:
[1] = molecular target: T1, untagged SPD-5 aa 101-473, not phosphorylated (C. elegans, UniProt P91349 101-473); test: pull-down; MBP pull-down: purified SPD-5 fragments mixed at 2.0 μM with or without 500 nM PLK1(T194D) in kinase buffer 1 h at 23°C; then 75 nM each with 2 μg anti-MBP antibody in lysis buffer 2 h at 4°C and protein A beads 1 h at 4°C; five washes; immunoblot or Coomassie; conditions: both partners purified
T1 construct: source: E. coli BL21(DE3) pLysS, purified (glutathione agarose, cleaved off GST)
T1 sequence (looked up): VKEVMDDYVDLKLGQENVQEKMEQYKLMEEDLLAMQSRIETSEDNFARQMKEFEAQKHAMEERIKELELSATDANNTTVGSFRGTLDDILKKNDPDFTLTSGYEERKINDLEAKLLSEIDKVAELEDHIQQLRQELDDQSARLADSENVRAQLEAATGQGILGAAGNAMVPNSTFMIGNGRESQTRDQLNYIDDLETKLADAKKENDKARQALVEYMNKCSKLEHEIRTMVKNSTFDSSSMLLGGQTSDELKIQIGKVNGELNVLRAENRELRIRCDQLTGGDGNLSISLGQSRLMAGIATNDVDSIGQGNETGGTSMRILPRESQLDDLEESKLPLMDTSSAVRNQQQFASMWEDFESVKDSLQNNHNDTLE

[2] = molecular target: the molecule itself; test: SEC-MALS; Superose 6 increase 10/300 or Superdex 200 increase 10/300 in 20 mM Tris-HCl pH 7.5, 50 mM NaCl, 5 mM EGTA, 2 mM MgCl2, 1 mM DTT; 120 μL of ~2.0 mg/ml protein loaded; with or without PLK1 phosphorylation

binding result [1]: binds
B1: MBP-6His-HA (M6HH)-tagged SPD-5 aa 1-101, not phosphorylated (domain or fragment, C. elegans, UniProt P91349 1-101, looked up)
chain: MEDNSVLNEDSNLEHVEGQPRRSMSQPVLNVEGDKRTSSTSATQQQVLSGAFSSADVRSIPIIQTWEENKALKTKITILRGELQMYQRRYSEAKEASQKRV
notes: also called PRGB1; source: E. coli BL21(DE3) pLysS, purified (Ni-NTA)

B2: untagged SPD-5 aa 1-473, not phosphorylated (domain or fragment, C. elegans, UniProt P91349 1-473, looked up)
chain: MEDNSVLNEDSNLEHVEGQPRRSMSQPVLNVEGDKRTSSTSATQQQVLSGAFSSADVRSIPIIQTWEENKALKTKITILRGELQMYQRRYSEAKEASQKRVKEVMDDYVDLKLGQENVQEKMEQYKLMEEDLLAMQSRIETSEDNFARQMKEFEAQKHAMEERIKELELSATDANNTTVGSFRGTLDDILKKNDPDFTLTSGYEERKINDLEAKLLSEIDKVAELEDHIQQLRQELDDQSARLADSENVRAQLEAATGQGILGAAGNAMVPNSTFMIGNGRESQTRDQLNYIDDLETKLADAKKENDKARQALVEYMNKCSKLEHEIRTMVKNSTFDSSSMLLGGQTSDELKIQIGKVNGELNVLRAENRELRIRCDQLTGGDGNLSISLGQSRLMAGIATNDVDSIGQGNETGGTSMRILPRESQLDDLEESKLPLMDTSSAVRNQQQFASMWEDFESVKDSLQNNHNDTLE
notes: also called SPD-5 N-terminus; source: E. coli BL21(DE3) pLysS, purified (glutathione agarose, cleaved off GST)
stoichiometry N [2]: 2

B3: untagged SPD-5 aa 1-473, PLK1-phosphorylated (domain or fragment, C. elegans, UniProt P91349 1-473, looked up)
chain: B2 chain
modifications: phosphorylated in vitro by PLK1(T194D); sites not all mapped (predicted PLK1 sites S5, S11, S170, T178, T198, T274, T335, S339, S340)
notes: source: E. coli BL21(DE3) pLysS, purified (glutathione agarose, cleaved off GST); incubated with PLK1-6His and ATP
stoichiometry N [2]: 2

B4: MBP-6His-HA (M6HH)-tagged SPD-5 aa 1-473, not phosphorylated (domain or fragment, C. elegans, UniProt P91349 1-473, looked up)
chain: B2 chain
notes: source: E. coli BL21(DE3) pLysS, purified (Ni-NTA)
stoichiometry N [2]: 2

B5: MBP-6His-HA (M6HH)-tagged SPD-5 aa 1-345, not phosphorylated (domain or fragment, C. elegans, UniProt P91349 1-345, looked up)
chain: MEDNSVLNEDSNLEHVEGQPRRSMSQPVLNVEGDKRTSSTSATQQQVLSGAFSSADVRSIPIIQTWEENKALKTKITILRGELQMYQRRYSEAKEASQKRVKEVMDDYVDLKLGQENVQEKMEQYKLMEEDLLAMQSRIETSEDNFARQMKEFEAQKHAMEERIKELELSATDANNTTVGSFRGTLDDILKKNDPDFTLTSGYEERKINDLEAKLLSEIDKVAELEDHIQQLRQELDDQSARLADSENVRAQLEAATGQGILGAAGNAMVPNSTFMIGNGRESQTRDQLNYIDDLETKLADAKKENDKARQALVEYMNKCSKLEHEIRTMVKNSTFDSSSMLLGG
notes: as for B4
stoichiometry N [2]: 2

Reference: publication doi:10.1101/2025.11.20.689565, “Phosphorylation remodels the mitotic centrosome matrix to generate bipartite γ-tubulin complex docking sites” (bioRxiv, 2025)
